{"source": "patent US20150306234", "key": {"BDD FVIII mutein S2186C": {"test_system": "T1, BDD FVIII mutein S2186C", "T1 sequence": "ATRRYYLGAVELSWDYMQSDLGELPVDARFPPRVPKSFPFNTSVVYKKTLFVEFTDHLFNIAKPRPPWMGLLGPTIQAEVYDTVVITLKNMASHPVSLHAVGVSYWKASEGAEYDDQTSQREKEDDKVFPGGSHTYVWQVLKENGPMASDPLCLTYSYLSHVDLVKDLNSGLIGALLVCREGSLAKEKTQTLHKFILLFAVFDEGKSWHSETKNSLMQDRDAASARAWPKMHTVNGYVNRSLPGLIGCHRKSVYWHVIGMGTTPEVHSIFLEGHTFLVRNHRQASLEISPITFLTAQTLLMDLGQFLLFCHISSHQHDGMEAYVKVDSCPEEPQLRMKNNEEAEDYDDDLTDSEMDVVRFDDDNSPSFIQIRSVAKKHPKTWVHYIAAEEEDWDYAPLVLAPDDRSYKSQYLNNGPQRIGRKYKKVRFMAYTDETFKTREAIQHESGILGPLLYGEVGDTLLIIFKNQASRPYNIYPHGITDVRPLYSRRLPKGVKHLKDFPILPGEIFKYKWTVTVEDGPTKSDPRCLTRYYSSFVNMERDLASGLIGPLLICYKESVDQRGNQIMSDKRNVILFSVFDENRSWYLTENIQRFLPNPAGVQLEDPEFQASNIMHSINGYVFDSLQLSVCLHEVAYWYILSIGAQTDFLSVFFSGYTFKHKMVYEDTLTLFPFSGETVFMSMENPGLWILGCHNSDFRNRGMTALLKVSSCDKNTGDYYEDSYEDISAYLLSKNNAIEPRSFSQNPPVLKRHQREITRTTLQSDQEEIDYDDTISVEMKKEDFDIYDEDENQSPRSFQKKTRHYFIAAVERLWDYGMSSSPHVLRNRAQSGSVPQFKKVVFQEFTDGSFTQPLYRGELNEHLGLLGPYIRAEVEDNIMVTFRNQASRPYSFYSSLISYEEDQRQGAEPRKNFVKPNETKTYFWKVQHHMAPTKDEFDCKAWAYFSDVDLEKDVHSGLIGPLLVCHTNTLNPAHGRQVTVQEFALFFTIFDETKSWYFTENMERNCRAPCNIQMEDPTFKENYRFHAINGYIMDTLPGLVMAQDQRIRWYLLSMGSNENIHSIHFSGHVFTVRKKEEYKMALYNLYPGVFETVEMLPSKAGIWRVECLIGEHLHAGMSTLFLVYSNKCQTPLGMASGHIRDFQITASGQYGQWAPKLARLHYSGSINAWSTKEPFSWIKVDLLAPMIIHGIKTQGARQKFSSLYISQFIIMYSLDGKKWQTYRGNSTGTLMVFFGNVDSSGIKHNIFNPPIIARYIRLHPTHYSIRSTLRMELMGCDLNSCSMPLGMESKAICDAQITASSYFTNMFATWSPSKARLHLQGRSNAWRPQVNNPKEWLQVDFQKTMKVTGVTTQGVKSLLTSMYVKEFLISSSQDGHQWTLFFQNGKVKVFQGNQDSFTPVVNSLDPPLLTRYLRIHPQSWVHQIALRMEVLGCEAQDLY"}, "BDD FVIII mutein S2206C": {"test_system": "T2, BDD FVIII mutein S2206C", "T2 sequence": "T1 sequence with C1292S, S1312C"}}, "note": "Positions count from the first letter of the chain named."}
{"substance": "thrombin (Haematologic Technologies, Essex Junction, Vt.)", "values": [{"measurement": "thrombin cleavage, SDS-PAGE with silver staining", "setting": "BDD FVIII mutein S2186C", "value": "Thrombin digestion of the muteins and control produced the expected cleavage fragments."}, {"measurement": "thrombin cleavage, SDS-PAGE with silver staining", "setting": "BDD FVIII mutein S2206C", "value": "Thrombin digestion of the muteins and control produced the expected cleavage fragments."}]}
